The source of these data is ChEMBL document CHEMBL2074521, “Partial purification and reconstitution of the human multidrug-resistance pump: characterization of the drug-stimulatable ATP hydrolysis” (Proc Natl Acad Sci U S A, 1992).

Broadly, the Km is the substrate concentration at which the rate is half of its maximum.

This data set has as its system COc1cc2c(c(OC)c1OC)-c1ccc(OC)c(=O)cc1[C@@H](NC(C)=O)CC2. The experiment in a line: TP_TRANSPORTER: ATP hydrolysis in reconstituted proteoliposomes. The format is functional, subcellular.

Take “ATP-dependent translocase ABCB1 (Homo sapiens)”: the Km was found to be 45 µM.
